According to patent publication US20190241670A1 (BIOCON, published 2019):

Target: T1, rhCD6FC/Chimera (R and D systems) (human, UniProt P30203 25-398)
T1 construct: Bought reagent (R and D systems), coated on the ELISA plate; also called CD6 receptor; Fc part of the bought chimera not given
T1 sequence (looked up): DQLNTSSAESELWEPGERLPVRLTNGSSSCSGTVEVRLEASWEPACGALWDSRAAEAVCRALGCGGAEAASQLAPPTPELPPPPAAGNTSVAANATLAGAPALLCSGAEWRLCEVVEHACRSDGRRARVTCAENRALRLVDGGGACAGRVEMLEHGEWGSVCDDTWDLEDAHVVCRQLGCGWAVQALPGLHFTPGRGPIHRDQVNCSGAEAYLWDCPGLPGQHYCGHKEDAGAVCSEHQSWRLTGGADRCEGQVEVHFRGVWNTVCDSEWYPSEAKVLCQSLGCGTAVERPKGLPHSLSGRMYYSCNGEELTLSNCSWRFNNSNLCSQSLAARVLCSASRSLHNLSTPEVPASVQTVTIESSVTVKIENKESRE
Assay: ELISA, CD6-Fc coated plate, fixed T1h with varying ALCAM-Fc as competitor
Method: When varying concentrations of ALCAM-Fc was incubated along with a fixed concentration of T1h in a CD6-Fc coated ELISA plate, T1h was detected at all concentration of ALCAM-Fc.
The rhCD6FC/Chimera (R and D systems) (100 ≈g/ml) was diluted in coating buffer and 100 ≈l was added to each well of a 96 well Nunc-Maxisorp plate. The plate was then incubated at 4éC overnight. The Plate was washed thrice with PBS Tween 20. Subsequently, 200 ≈l of blocking solution (2% BSA+0.1% Tween 20 in 1×PBS) was added and incubated for 1 hour at 37éC. After incubation, the plate was washed again with PBS Tween thrice, followed by the addition of T1h monoclonal antibody (0.2 mg/ml) and .rhA LCAMFc (R and D systems) at varying concentrations. This was then incubated for an hour at 37éC. The plate was washed 3 times subsequently with PBS Tween. To the wells 200 ≈l of anti human IgG (Fab)₂ ALP (1:20000) diluted in blocking buffer was added and incubated for 1 hour at 37éC. The plate was washed thrice with PBS tween and 200 ≈l of p-Nitrophenyl Phosphate (PNPP) substrate is added to each well and incubated at 37éC till color develops around 15 minutes. Reading was taken at 405 nm using a BIOTEK Micro Plate Reader.

- binding result: binds
B1: humanized IgG1 isotype anti-CD6 monoclonal antibody (T1h) (antibody, V domains shown)
VH: EVQLVESGGGLVKPGGSLKLSCAASGFKFSRYAMSWVRQAPGKRLEWVATISSGGSYIYYPDSVKGRFTISRDNVKNTLYLQMSSLRSEDTAMYYCARRDYDLDYFDSWGQGTLVTVSS
VL: DIQMTQSPSSLSASVGDRVTITCKASRDIRSYLTWYQQKPGKAPKTLIYYATSLADGVPSRFSGSGSGQDYSLTISSLESDDTATYYCLQHGESPFTLGSGTKLEIK
notes: also called humanized IOR-T1; Itolizumab
